Source: publication PMC12714136, “14-3-3θ phosphorylation at S232 reduces its interactome and regulates axonal trafficking” (Disease Models & Mechanisms, 2025)

Molecular target: T1, nuclear distribution protein nude-like 1 (M17 neuroblastoma cells) (human (endogenous in SK-N-BE(2)-M17), UniProt Q9GZM8 1-345)
T1 construct: nuclear distribution protein nudE-like 1, endogenous in SK-N-BE(2)-M17 cells; also called NDEL1; source: endogenous, SK-N-BE(2)-M17 neuroblastoma cells (fixed cells)
T1 sequence (looked up): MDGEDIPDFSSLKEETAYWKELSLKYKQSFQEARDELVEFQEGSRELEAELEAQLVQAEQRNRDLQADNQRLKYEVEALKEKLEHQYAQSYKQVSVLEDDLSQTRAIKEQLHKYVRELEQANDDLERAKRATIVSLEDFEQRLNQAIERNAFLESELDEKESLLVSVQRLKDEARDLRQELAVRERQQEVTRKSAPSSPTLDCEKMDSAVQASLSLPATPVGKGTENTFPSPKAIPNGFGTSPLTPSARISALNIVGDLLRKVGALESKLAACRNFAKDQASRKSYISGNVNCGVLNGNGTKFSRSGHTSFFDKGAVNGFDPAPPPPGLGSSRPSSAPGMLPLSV
Assay: proximity ligation; fixed M17 cells stably expressing V5-tagged 14-3-3θ S232A or S232D; anti-V5 with anti-NDEL1 or anti-BCR antibody; DuoLink probes; objects per area, normalised
Details: partners not purified

- fold PLA signal against S232D: ~2 fold
B1: V5-tagged 14-3-3θ S232A (natural protein, UniProt P27348 1-245, looked up)
chain: MEKTELIQKAKLAEQAERYDDMATCMKAVTEQGAELSNEERNLLSVAYKNVVGGRRSAWRVISSIEQKTDTSDKKLQLIKDYREKVESELRSICTTVLELLDKYLIANATNPESKVFYLKMKGDYFRYLAEVACGDDRKQTIDNSQGAYQEAFDISKKEMQPTHPIRLGLALNFSVFYYEILNNPELACTLAKTAFDEAIAELDTLNEDSYKDSTLIMQLLRDNLTLWTSDAAGEECDAAEGAEN
notes: 14-3-3 protein theta with S232A; also called V5-14-3-3θ phospho-mutant S232A; source: SK-N-BE(2)-M17 cells, stably transfected (fixed cells)
